Results from PMC5201196.

Molecular target: protein G´e (protein G prime e, extended)
Assay: MST

Substance: IgG (antibody)
- Kd: 9.4 nM
